Reference: paper PMC5300155, “Biochemical and biophysical investigations of the interaction between human glucokinase and pro-apoptotic BAD” (PLoS ONE, 2017)
Primed or numbered codes have the meaning given here. No end group written: not given here. FITC′ = fluorescein isothiocyanate label

What was measured:
[1] = biological target: GST; experiment: AUC; sedimentation velocity; single proteins or 1:1 molar mixtures incubated on ice 30 min; BAD buffer pH 8.5; 20°C
[2] = biological target: T1, recombinant human Bcl-xL, Δ45–84, Δ210–233 variant (human, UniProt Q07817-1 1-209, Δ45–84); experiment: fluorescence polarisation; 15 nM FITC peptide, Bcl-xL varied 0–2.25 μM; BAD buffer mixed with phosphate assay buffer pH 7.4; room temperature; details: both partners purified
T1 construct: Bcl-xL, human; loop 45-84 deleted and C-terminal residues 210-233 lacking; also called soluble, recombinant Bcl-xL
T1 sequence (Q07817 other isoform, or with tags, fused parts or gaps Δ45–84 | Δ45–84 | mutant): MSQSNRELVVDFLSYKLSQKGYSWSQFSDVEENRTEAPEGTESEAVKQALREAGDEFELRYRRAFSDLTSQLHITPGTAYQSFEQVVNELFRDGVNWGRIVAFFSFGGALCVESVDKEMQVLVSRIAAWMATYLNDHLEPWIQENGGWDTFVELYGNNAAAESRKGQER

Sequence of GST (natural protein) (P08515 2-218): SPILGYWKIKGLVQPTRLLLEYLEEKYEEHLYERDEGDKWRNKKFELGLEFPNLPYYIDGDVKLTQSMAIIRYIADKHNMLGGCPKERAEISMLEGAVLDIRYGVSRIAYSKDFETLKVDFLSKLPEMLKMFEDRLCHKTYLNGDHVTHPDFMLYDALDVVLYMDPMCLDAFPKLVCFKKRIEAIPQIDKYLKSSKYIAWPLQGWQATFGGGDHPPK

Molecule	stoichiometry N [1]	Kd [2]
GST (natural protein)	2	
NLWAAQRYGRELRRMSDK(FITC′)FVD (BH3 domain of BAD, human; also called f-BH3; fluorescent BH3 peptide; source: synthetic peptide (Peptide2.0, >95%)) [FITC-labeled 21-residue peptide containing the BH3 domain of BAD]		180 nM
